The values that follow come from patent US20020022239A1, “PHYTOFLUORS AS FLUORESCENT LABELS” (priority 1999, published 2002).

Sequences and labels used below:
B1: Cph2-N197: Strep-Tagged N-terminal 197 amino acid region of Cph2 (SEQ ID NO: 9), module 1 only (protein)
chain: KLAVRAISRLQSLPGGDIGALCDTVVEDVQRLTGYDRVMVYQFHEDDHGEVVSEIRRSDLEPYLGLHYPATDIPQAARFLFKQNRVRMICDCNATPVKVVQSEELKRPLCLVNSTLRAPHGCHTQYMANMGSVASLALAIVVKGKDSSKLWGLVVGHHCSPRYVPFPLRYACEFLMQAFGLQLQMELQLASQLAEK
modifications: Strep-Tag
B2: cph2a (N390): first 390 amino acid residues of Cph2 (SLL0821), N-terminal phytochrome-related domain (protein, UniProt Q55434 1-390, looked up, fragment)
chain: MNPNRSLEDFLRNVINKFHRALTLRETLQVIVEEARIFLGVDRVKIYKFASDGSGEVLAEAVNRAALPSLLGLHFPVEDIPPQAREELGNQRKMIAVDVAHRRKKSHELSGRISPTEHSNGHYTTVDSCHIQYLLAMGVLSSLTVPVMQDQQLWGIMAVHHSKPRRFTEQEWETMALLSKEVSLAITQSQLSRQVHQQQVQEALVQRLETTVAQYGDRPETWQYALETVGQAVEADGAVLYIAPDLTGSVAQHYQWNLRFDWGNWLETSLWQELMRGQPSAAMEPMAAVQSTWEKPRPFTSVAPLPPTNCVPHGYTLGELEQRSDWIAPPESLSAENFQSFLIVPLAADQQWVGSLILLRKEKSLVKHWAGKRGIDRRNILPRLSFEAWE
B3: Cph1 (N514) R222G: site-directed single mutant R222G of Cph1 (N514) (protein, UniProt Q55168 1-514, looked up, variant R222G)
chain: MATTVQLSDQSLRQLETLAIHTAHLIQPHGLVVVLQEPDLTISQISANCTGILGRSPEDLLGRTLGEVFDSFQIDPIQSRLTAGQISSLNPSKLWARVMGDDFVIFDGVFHRNSDGLLVCELEPAYTSDNLPFLGFYHMANAALNRLRQQANLRDFYDVIVEEVRRMTGFDRVMLYRFDENNHGDVIAEDKRDDMEPYLGLHYPESDIPQPARRLFIHNPIGVIPDVYGVAVPLTPAVNPSTNRAVDLTESILRSAYHCHLTYLKNMGVGASLTISLIKDGHLWGLIACHHQTPKVIPFELRKACEFFGRVVFSNISAQEDTETFDYRVQLAEHEAVLLDKMTTAADFVEGLTNHPDRLLGLTGSQGAAICFGEKLILVGETPDEKAVQYLLQWLENREVQDVFFTSSLSQIYPDAVNFKSVASGLLAIPIARHNFLLWFRPEVLQTVNWGGDPNHAYEATQEDGKIELHPRQSFDLWKEIVRLQSLPWQSVEIQSALALKKAIVNLILRQAEE
modifications: N514 fragment
B4: Cph1 (N514) D171A: site-directed single mutant D171A of Cph1 (N514) (protein, UniProt Q55168 1-514, looked up, variant D171A)
chain: MATTVQLSDQSLRQLETLAIHTAHLIQPHGLVVVLQEPDLTISQISANCTGILGRSPEDLLGRTLGEVFDSFQIDPIQSRLTAGQISSLNPSKLWARVMGDDFVIFDGVFHRNSDGLLVCELEPAYTSDNLPFLGFYHMANAALNRLRQQANLRDFYDVIVEEVRRMTGFARVMLYRFDENNHGDVIAEDKRDDMEPYLGLHYPESDIPQPARRLFIHNPIRVIPDVYGVAVPLTPAVNPSTNRAVDLTESILRSAYHCHLTYLKNMGVGASLTISLIKDGHLWGLIACHHQTPKVIPFELRKACEFFGRVVFSNISAQEDTETFDYRVQLAEHEAVLLDKMTTAADFVEGLTNHPDRLLGLTGSQGAAICFGEKLILVGETPDEKAVQYLLQWLENREVQDVFFTSSLSQIYPDAVNFKSVASGLLAIPIARHNFLLWFRPEVLQTVNWGGDPNHAYEATQEDGKIELHPRQSFDLWKEIVRLQSLPWQSVEIQSALALKKAIVNLILRQAEE
modifications: N514 fragment
B5: Cph1 (N514) Wild Type: N514 deletion mutant of Synechocystis sp. PCC 6803 apophytochrome Cph1, wild-type sequence (protein, UniProt Q55168 1-514, looked up, fragment)
chain: MATTVQLSDQSLRQLETLAIHTAHLIQPHGLVVVLQEPDLTISQISANCTGILGRSPEDLLGRTLGEVFDSFQIDPIQSRLTAGQISSLNPSKLWARVMGDDFVIFDGVFHRNSDGLLVCELEPAYTSDNLPFLGFYHMANAALNRLRQQANLRDFYDVIVEEVRRMTGFDRVMLYRFDENNHGDVIAEDKRDDMEPYLGLHYPESDIPQPARRLFIHNPIRVIPDVYGVAVPLTPAVNPSTNRAVDLTESILRSAYHCHLTYLKNMGVGASLTISLIKDGHLWGLIACHHQTPKVIPFELRKACEFFGRVVFSNISAQEDTETFDYRVQLAEHEAVLLDKMTTAADFVEGLTNHPDRLLGLTGSQGAAICFGEKLILVGETPDEKAVQYLLQWLENREVQDVFFTSSLSQIYPDAVNFKSVASGLLAIPIARHNFLLWFRPEVLQTVNWGGDPNHAYEATQEDGKIELHPRQSFDLWKEIVRLQSLPWQSVEIQSALALKKAIVNLILRQAEE
B6: Cph1 (N514) DR171/2AA: double mutant D171A/R172A of Cph1 (N514) (protein, UniProt Q55168 1-514, looked up, variant D171A R172A)
chain: MATTVQLSDQSLRQLETLAIHTAHLIQPHGLVVVLQEPDLTISQISANCTGILGRSPEDLLGRTLGEVFDSFQIDPIQSRLTAGQISSLNPSKLWARVMGDDFVIFDGVFHRNSDGLLVCELEPAYTSDNLPFLGFYHMANAALNRLRQQANLRDFYDVIVEEVRRMTGFAAVMLYRFDENNHGDVIAEDKRDDMEPYLGLHYPESDIPQPARRLFIHNPIRVIPDVYGVAVPLTPAVNPSTNRAVDLTESILRSAYHCHLTYLKNMGVGASLTISLIKDGHLWGLIACHHQTPKVIPFELRKACEFFGRVVFSNISAQEDTETFDYRVQLAEHEAVLLDKMTTAADFVEGLTNHPDRLLGLTGSQGAAICFGEKLILVGETPDEKAVQYLLQWLENREVQDVFFTSSLSQIYPDAVNFKSVASGLLAIPIARHNFLLWFRPEVLQTVNWGGDPNHAYEATQEDGKIELHPRQSFDLWKEIVRLQSLPWQSVEIQSALALKKAIVNLILRQAEE
modifications: N514 fragment
B7: Cph1 (N514) DR171/2AG: double mutant D171A/R172G of Cph1 (N514) (protein, UniProt Q55168 1-514, looked up, variant D171A R172G)
chain: MATTVQLSDQSLRQLETLAIHTAHLIQPHGLVVVLQEPDLTISQISANCTGILGRSPEDLLGRTLGEVFDSFQIDPIQSRLTAGQISSLNPSKLWARVMGDDFVIFDGVFHRNSDGLLVCELEPAYTSDNLPFLGFYHMANAALNRLRQQANLRDFYDVIVEEVRRMTGFAGVMLYRFDENNHGDVIAEDKRDDMEPYLGLHYPESDIPQPARRLFIHNPIRVIPDVYGVAVPLTPAVNPSTNRAVDLTESILRSAYHCHLTYLKNMGVGASLTISLIKDGHLWGLIACHHQTPKVIPFELRKACEFFGRVVFSNISAQEDTETFDYRVQLAEHEAVLLDKMTTAADFVEGLTNHPDRLLGLTGSQGAAICFGEKLILVGETPDEKAVQYLLQWLENREVQDVFFTSSLSQIYPDAVNFKSVASGLLAIPIARHNFLLWFRPEVLQTVNWGGDPNHAYEATQEDGKIELHPRQSFDLWKEIVRLQSLPWQSVEIQSALALKKAIVNLILRQAEE
modifications: N514 fragment

One assay can be described thus: Covalent bilin (PCB) binding of recombinant apophytochrome polypeptides upon incubation with PCB (zinc blot). Conditions: incubation with PCB. From the text:
This work thus confirms that the structural motif illustrated in FIG. 2 represents the bilin-binding domain of the ‘phytochrome superfamily’ from which new phytofluors of different colors can be devised.
Based on the multiple sequence alignment shown in FIG. 2, and using methods described in W098/04700, a bacterial expression vector express a Strep-Tagged version of N-terminal 197 amino acid region of Cph2 (Cph2-N197) that encompassed ‘module 1’ only was constructed (see, FIG. 3).
To address the importance of conserved residues in the bilin lyase domain of Cph1 to bilin attachment and spectral properties of its bilin adducts, site-directed mutagenesis of some of these residues were undertaken. Charged residues D171, R172, E189 and R222 of Cph1 (N514) were mutagenized in the initial studies.
With B1, the “covalent binding of PCB” value was “yielded a covalent biliprotein adduct”.
The same measure, in the same setting: the entry for B2 is “covalently bind PCB”.

Still in this assay, the particulars now being: site-directed mutants of Cph1 (N514).
With B3, the “PCB Binding” value is recorded as “yes”.
The same measure, in the same setting: in the case of B4 it was “yes”.
On the same count and under the same terms, the entry for B5 is “yes”; for B6 it is “no”.
Same read-out and setting: the entry for B7 is “no”.
